# Measured values published in patent US20260116966A1 (KEYMED BIOSCIENCES CHENGDU, published 2026).
# B1: 2F1 × CD3 H4K5 GPRC5D×CD3 κλ bispecific antibody variant (bispecific antibody, human IgG4 S228P, kappa, lambda)
# heavy 1: QVQLVQSGAEVKKPGSSVKVSCKASGYSFTGYTMNWVREAPGQGLEWMGLINPYNGGTRYNQKFQGRVTITADESTSTAYMELSSLRSEDTAVYYCARWALRYGMDYWGQGTLVTVSSASTKGPSVFPLAPCSRSTSESTAALGCLVKDYFPEPVTVSWNSGALTSGVHTFPAVLQSSGLYSLSSVVTVPSSSLGTKTYTCNVDHKPSNTKVDKRVESKYGPPCPPCPAPEFEGGPSVFLFPPKPKDTLMISRTPEVTCVVVDVSQEDPEVQFNWYVDGVEVHNAKTKPREEQFNSTYRVVSVLTVLHQDWLNGKEYKCKVSNKGLASSIEKTISKAKGQPREPQVCTLPPSQEEMTKNQVSLSCAVKGFYPSDIAVEWESNGQPENNYKTTPPVLDSDGSFFLVSKLTVDKSRWQEGNVFSCSVMHEALHNHYTQKSLSLSLGK
# light 1: DIQMTQSPSSLSASVGDRVTITCQASQNVGTNVAWYQKKPGQAPKALIYSASYLNSGVPSRFSGSGSGTDFTFTISSLQPEDIATYFCQQYNSYLLTFGGGTKVEIKRTVAAPSVFIFPPSDEQLKSGTASVVCLLNNFYPREAKVQWKVDNALQSGNSQESVTEQDSKDSTYSLSSTLTLSKADYEKHKVYACEVTHQGLSSPVTKSFNRGEC
# heavy 2: EVQLVESGGGLVQPGGSLRLSCAASGFTFNTYAMNWVRKAPGKGLEWVGRIRSKYNNYATYYADSVKDRFTISRDDSKNSLYLQMNSLKTEDTAVYYCVRHGNFGNSYVSWFAYWGQGTLVTVSSASTKGPSVFPLAPCSRSTSESTAALGCLVKDYFPEPVTVSWNSGALTSGVHTFPAVLQSSGLYSLSSVVTVPSSSLGTKTYTCNVDHKPSNTKVDKRVESKYGPPCPPCPAPEFEGGPSVFLFPPKPKDTLMISRTPEVTCVVVDVSQEDPEVQFNWYVDGVEVHNAKTKPREEQFNSTYRVVSVLTVLHQDWLNGKEYKCKVSNKGLASSIEKTISKAKGQPREPQVYTLPPCQEEMTKNQVSLWCLVKGFYPSDIAVEWESNGQPENNYKTTPPVLDSDGSFFLYSKLTVDKSRWQEGNVFSCSVMHEALHNHYTQKSLSLSLGK
# light 2: QAVVTQEPSLTVSPGGTVTLTCRSSTGAVTTSNYANWVQEKPGQAPRGLIGGTNKRAPWTPARFSGSLLGGKAALTITGAQAEDEAEYYCVLWYSNLWVFGGGTKLTVLGQPKAAPSVTLFPPSSEELQANKATLVCLISDFYPGAVTVAWKADSSPVKAGVETTTPSKQSNNKYAASSYLSLTPEQWKSHRSYSCQVTHEGSTVEKTVAPTECS
# notes: also called h2F1 H4K5
# B2: BCMA × CD3 κλ005 bispecific antibody (bispecific antibody, human IgG4 S228P, kappa, lambda)
# heavy 1: QVQLVQSGSELKKPGASVKVSCKASGYIFTNFGMNWVREAPGQGLEWMGWINTYTGEQIYADGFTGRFVFSLDTSVSTAYLQISSLKAEDTAVYFCARGEIYYGYDVGFVYWGQGTLVTVSS
# light 1: DIVLTQSPASLAVSPGQRATITCRASKSVSTSGYSYMHWYQKKPGQPPKLLIYLASNLESGVPARFSGSGSGTDFTLTINPVEAEDTANYYCQHSRELPWTFGQGTKVEIKRTVAAPSVFIFPPSDEQLKSGTASVVCLLNNFYPREAKVQWKVDNALQSGNSQESVTEQDSKDSTYSLSSTLTLSKADYEKHKVYACEVTHQGLSSPVTKSFNRGEC
# heavy 2: B1 heavy 2
# light 2: B1 light 2
# notes: they are not tied to the name κλ005 in one sentence; also called BCMA×CD3 bispecific antibody
# Columns and labels:
# [1] = target: T1, human GPRC5D (human, UniProt Q9NZD1 1-345); assay: flow cytometry, HEK293-hGPRC5D cells
# T1 construct: Full length, on stably transfected cells (HEK293-hGPRC5D, CHO-hGPRC5D); Also used here for the endogenous GPRC5D of the GPRC5D+ myeloma lines MM.1R, MM.1S and NCI-H929; also called hGPRC5D; G-protein-coupled receptor family C group 5 member D
# T1 sequence (Q9NZD1 whole entry): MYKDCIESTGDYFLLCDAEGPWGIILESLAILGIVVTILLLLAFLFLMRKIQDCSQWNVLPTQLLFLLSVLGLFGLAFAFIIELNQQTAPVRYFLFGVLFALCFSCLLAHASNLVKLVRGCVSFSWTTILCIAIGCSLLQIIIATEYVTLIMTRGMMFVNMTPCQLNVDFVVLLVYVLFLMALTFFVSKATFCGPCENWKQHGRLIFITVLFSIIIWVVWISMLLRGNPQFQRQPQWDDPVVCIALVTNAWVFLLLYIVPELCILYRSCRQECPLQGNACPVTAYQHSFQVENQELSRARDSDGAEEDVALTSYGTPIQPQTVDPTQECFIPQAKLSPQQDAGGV
# Protocol: Cell suspensions of HEK293-hGPRC5D and HEK293-hBCMA stably transfected cells in logarithmic growth phase were adjusted to 5×10⁵ cells/ml. Then, 100 μl/well of the cell suspension was added to a 96-well U-shaped plate, and centrifuged at 300 g for 5 min. The supernatant was discarded. 100 μL per well of serially diluted antibody was added, and incubated at 4° C. for 60 min. The secondary antibody 50 μL/well of Alexa Fluro647 labeled goat anti-human IgG Fc (1:300 dilution) was added, and incubated on ice for 20 min. After washing once, 50 μL/well of PI solution was added, incubated for 5 min, and detected by flow cytometry.
# [2] = target: T2, CD3 receptor on the surface of Jurkat cells (human, UniProt P07766 23-207); assay: flow cytometry, Jurkat cells
# T2 construct: whole, on cells; Whole CD3/TCR complex on Jurkat cells; also called Jurkat T
# T2 sequence (P07766 23-207): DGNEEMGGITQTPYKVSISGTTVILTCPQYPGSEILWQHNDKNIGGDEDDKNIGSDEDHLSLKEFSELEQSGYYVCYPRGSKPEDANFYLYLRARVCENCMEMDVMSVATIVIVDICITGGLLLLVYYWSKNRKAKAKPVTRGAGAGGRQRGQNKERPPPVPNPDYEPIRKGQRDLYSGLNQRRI
# Protocol: The cell concentration was adjusted with 4% calf serum to 5×10⁵ cells/mL. 100 μL per well was added to a 96-well U-shaped plate, and centrifuged at 300 g. The supernatant was removed. […] The secondary antibody 50 μL/well of Alexa Fluro647 labeled goat anti-human IgG Fc (1:300 dilution) was added, and incubated on ice for 20 min. After washing once, 50 μL/well of PI was added, incubated for 5 min, and detected by flow cytometry.
# [3] = target: T3, Cynomolgus GPRC5D (Cynomolgus, UniProt Q9NZD1 1-343 (human entry)); assay: flow cytometry, HEK293-cyGPRC5D cells
# T3 construct: Full length, on stably transfected cells (HEK293-cyGPRC5D, CHO-cyGPRC5D); also called cyGPRC5D
# T3 chain: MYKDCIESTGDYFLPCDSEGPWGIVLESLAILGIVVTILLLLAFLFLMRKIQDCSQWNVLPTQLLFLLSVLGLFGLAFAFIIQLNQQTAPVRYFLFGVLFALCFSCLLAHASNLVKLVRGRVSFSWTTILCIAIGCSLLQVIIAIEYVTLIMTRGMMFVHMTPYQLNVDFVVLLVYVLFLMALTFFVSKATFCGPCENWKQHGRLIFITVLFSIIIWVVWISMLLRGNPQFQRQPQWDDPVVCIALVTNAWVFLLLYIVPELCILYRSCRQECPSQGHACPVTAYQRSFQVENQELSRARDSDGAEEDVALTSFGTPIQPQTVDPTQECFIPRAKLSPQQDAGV
# Protocol: (§1) HEK293-hGPRC5D and HEK293-cyGPRC5D stably transfected cells in logarithmic growth phase were respectively adjusted to a cell density of 5×10⁵ cells/mL. Then, 100 μl/well of the cell suspension was added to a 96-well U-shaped plate, and centrifuged at 300 g for 5 min. The supernatant was discarded. […] The secondary antibody 50 μL/well of Alexa Fluro647 labeled goat anti-human IgG Fe (1:300 dilution) was added, and incubated on ice for 20 min. After washing once, 50 μL/well of PI solution (1:300) was added, incubated for 5 min, and detected by flow cytometry.
# [4] = target: T3, Cynomolgus GPRC5D; assay: flow cytometry, HEK293-cyGPRC5D cells against HEK293-hGPRC5D cells
# Protocol: as §1
# [5] = target: T1, human GPRC5D; assay: flow cytometry, HEK293-hGPRC5D cells; remark: listed apart in the source
# Protocol: as §1
# [6] = target: T1, human GPRC5D; assay: flow cytometry, MM.1R cells
# Protocol: The cell suspension of MM.1R cells in logarithmic growth phase was adjusted to a concentration of 5×10⁵ cells/mL, and 100 μL per well was added to a 96-well U-shaped plate, and centrifuged at 300 g for 5 min. The supernatant was discarded. […] The primary antibody was washed away, and 50 μL/well Alexa Fluro647 labeled goat anti-human IgG FC (1:300 dilution) was added, and incubated on ice for 20 min. After washing once, 50 μL/well of PI was added, incubated for 5 min, and detected by flow cytometry.
# [7] = target: T1, human GPRC5D; assay: cell-based or functional assay
# [8] = target: T1, human GPRC5D; assay: cell-based or functional assay; remark: listed apart in the source
# [9] = target: T2, CD3 receptor on the surface of Jurkat …; assay: cell-based or functional assay
# [10] = target: T4, biotinylated CD3 recombinant antigen (CD3εγ) (Homo sapiens (Human), UniProt P07766 23-126; P09693 23-116, Biotinylated; site and chemistry not stated. The letters do not carry the biotin.); assay: BLI, biotinylated antigen on SA probe, antibody as analyte
# T4 construct: also called CD3e antigen; copies: 1 + 1
# T4 sequence (P07766 23-126 limits assumed, chain 1 of 2): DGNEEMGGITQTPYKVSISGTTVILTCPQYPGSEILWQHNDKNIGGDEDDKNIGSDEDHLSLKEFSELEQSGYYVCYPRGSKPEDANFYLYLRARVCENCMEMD
# T4 sequence (P09693 23-116 limits assumed, chain 2 of 2): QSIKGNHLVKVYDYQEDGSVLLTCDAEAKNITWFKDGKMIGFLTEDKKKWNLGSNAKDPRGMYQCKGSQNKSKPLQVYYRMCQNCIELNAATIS
# [11] = target: T5, biotinylated BCMA recombinant antigen (Homo sapiens (Human), UniProt Q02223 1-54, Biotinylated; site and chemistry not stated. The letters do not carry the biotin.); assay: as above
# T5 sequence: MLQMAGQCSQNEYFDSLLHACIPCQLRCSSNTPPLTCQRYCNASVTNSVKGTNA
# [12] = target: T6, human BCMA on HEK293-hBCMA cells (human, UniProt Q02223 1-184); assay: flow cytometry, HEK293-hBCMA cells
# T6 construct: whole, on cells; also called BCMA receptor
# T6 sequence (looked up): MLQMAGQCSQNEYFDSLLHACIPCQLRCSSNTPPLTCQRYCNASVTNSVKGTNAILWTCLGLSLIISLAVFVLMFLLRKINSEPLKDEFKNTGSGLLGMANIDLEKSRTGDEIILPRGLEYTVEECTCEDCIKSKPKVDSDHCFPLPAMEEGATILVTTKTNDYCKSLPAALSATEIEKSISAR
# [13] = target: T6, human BCMA on HEK293-hBCMA cells; assay: cell-based or functional assay
Binder,EC50 [1],EC50 [2],EC50 [3],"fold difference of affinity, Cynomolgus GPRC5D against human GPRC5D [4]",EC50 [5],EC50 [6],"TDCC EC50 (nM), HEK293-hGPRC5D [7]","TDCC EC50 (nM), MM.1S [7]","TDCC EC50 (nM), NCI-H929 [7]","TDCC, EC50 (nM), MM.1R [8]","Jurkat-NFAT-luc, EC50 [9]",Kd [10],Kd [11],EC50 [12],"TDCC EC50 (nM), HEK293-hBCMA [13]"
B1,8.4 nM,1.9 nM,12.8 nM,< 5 fold,2.8 nM,15.7 nM,0.014 nM,0.017 nM,0.036 nM,0.008 nM,0.662 nM,–,–,–,–
B2,–,–,–,–,–,–,–,–,–,–,–,45.4 nM,1.1 nM,1.9 nM,0.015 nM
